Assays:
Format in all cases: cell-based, mouse
β-catenin = β-catenin assays; conditions: 34−KSL cells treated with PTN (data not shown)
Text: (§1) In order to determine a potential mechanism through which PTN mediates HSC expansion, an examination was made as to whether PTN altered pathways that are known to be affected by RPTPβ/ζ (Meng et al, Proc Natl Acad Sci USA 97: 2603-8 (2000), Stoica et al, J Biol Chem 276:16772-9 (2001), Landgraf et al, J Biol Chem 283:25036-45 (2008), Deuel et al, Arch Biochem Biophys 397:162-71 (2002)). Canonical PTN signaling occurs via binding and inactivation of RPTPβ/ζ (Meng et al, Proc Natl Acad Sci USA 97: 2603-8 (2000)), which can facilitate the tyrosine phosphorylation of several intracellular substrates, including Akt and β-catenin (Souttou et al, J Biol Chem 272:19588-93 (1997), Gu et al, FEBS Lett 581:382-8 (2007)). […] BM 34^− KSL cells were treated with TSF with and without 100 ng/mL PTN in the presence and absence of 10 μM wortmannin, a PI 3-kinase inhibitor (Souttou et al, J Biol Chem 272:19588-93 (1997)).

BM 34−KSL cells = experiment: Liquid suspension culture of BM 34−KSL cells with TSF with and without PTN x 7 days
Method: The above “loss of function” studies strongly implicated PTN as a secreted growth factor for HSCs.
Purified BM 34^−KSL cells were isolated from C57Bl6 and B6.SJL mice (Jackson Laboratory, Bar Harbor, Me.) via flow cytometric cell sorting as previously described (Reya, et al, Nature 423:409-14 (2003), Salter et al, Blood 113:2104-7 (2009)). Liquid suspension cultures of BM 34^−KSL cells were supplemented with IMDM+10% FBS+1% pcn/strp+20 ng/ml thrombopoietin, 120 ng/ml SCF, and 50 ng/ml flt-3 ligand (“TSF” media) with and without recombinant (human) PTN (R&D Systems, Minneapolis, Minn.). Non-contact HUBEC cultures were conducted using 0.4 μm transwell inserts (Corning, Lowell Mass.) and supplemented with TSF media with and without goat anti-PTN or isotype control antibody (R&D). Phenotypic analysis for KSL cells was performed as previously described (Chute et al, Blood 109:2365-72 (2007), Salter et al, Blood 113:2104-7 (2009)).
Since PTN has no known function in regulating hematopoiesis (Meng et al, Proc Natl Acad Sci USA 97: 2603-8 (2000)), an examination was first made as to whether BM stem/progenitor cells expressed one or more of the PTN receptors, receptor protein tyrosine phosphatase β/ζ (RPTP β/ζ), Syndecan or anaplastic lymphoma kinase (ALK) (Stoica et al, J Biol Chem 276:16772-9 (2001), Landgraf et al, J Biol Chem 283:25036-45 (2008)). The majority of BM MNCs and c-kit+sca-1^+lin^− (KSL) stem/progenitor cells expressed RPTP β/ζ (n=3, mean 87.0%±8.8 and 89%, respectively; FIG. 6A), whereas neither population expressed Syndecan or ALK (data not shown). In order to determine whether PTN might be a growth factor for HSCs, C57Bl6 BM CD34^−KSL cells, which are highly enriched for HSCs (Kiel et al, Nat Rev Immunol 8:290-301 (2008), Salter et al, Blood 113:2104-7 (2009)), were isolated by FACS and placed in liquid suspension culture with 20 ng/mL thrombopoietin, 120 ng/mL SCF and 50 ng/mL Flt-3 ligand (“TSF”) with or without 10, 100 or 1000 ng/mL PTN.

GFI-1 = experiment: qRT-PCR of KSL cells after culture with TSF+PTN; conditions: TSF+100 ng/mL PTN x 7 days vs TSF alone
Method: (§2) FIGS. 7A and 7B. […] (FIG. 7B) BM KSL cells were placed in culture with TSF (black bars) or TSF+100 ng/mL PTN (gray bars)×7 days and KSL cells were then isolated via FACS-sorting at day +7 for qRT-PCR analysis and comparison of gene expression. […] All comparisons were one tailed t tests.
(§3) RT-PCR analyses of PTN in ECs and HES-1, GFI-1 and PTEN in BM KSL cells and FACS-sorted KSL cells following culture were performed using a 2-step RTPCR reaction as previously described (Chute et al, Proc Natl Acad Sci USA 103, 11707-12 (2006)). Conditioned medium (CM) was generated from HUBECs and non-brain ECs as previously described (Chute et al, Blood 100:4433-9 (2002), Chute et al, Blood 105: 576-83 (2005)) and ELISA for PTN was performed following manufacturer's guidelines.
as §1

PTEN = experiment: qRT-PCR of KSL cells after culture with TSF+PTN; conditions: HSCs following PTN exposure
Method: as §2, §3, §1

HES-1 = experiment: qRT-PCR of KSL cells after culture with TSF+PTN; conditions: TSF+100 ng/mL PTN x 7 days vs TSF alone
Method: as §2, §3, §1

[1] = 100 ng/mL PTN added to TSF, 7 days
[2] = increasing doses (10, 100, 1000 ng/mL) of rPTN with TSF, Example 1

B1: PTN: Pleiotrophin, heparin binding growth factor; recombinant human PTN purchased from R&D systems (protein, UniProt P21246 33-168, looked up)
Pleiotrophin: GKKEKPEKKVKKSDCGEWQWSVCVPTSGDCGLGTREGTRTGAECKQTMKTQRCKIPCNWKKQFGAECKYQFQAWGECDLNTALKTRTGSLKRALHNAECQKTVTISKPCGKLTKPKPQAESKKKKKEGKKQEKMLD
**Q.** What does the source list for B1?
**A.** activated form of β-catenin (β-catenin): no increase; increase in total KSL stem/progenitor cells compared to TSF alone (BM 34−KSL cells; [1]): 17.7 fold; increase in total cells compared to TSF alone (BM 34−KSL cells; [1]): 6.4 fold; total cells, % KSL cells and total KSL cells (BM 34−KSL cells; addition of 10 to 100 ng/mL PTN to TSF): dose responsive increase; KSL cells in culture compared to the progeny of cytokines alone (BM 34−KSL cells; [2]): significant increase; total cells in culture compared to the progeny of cytokines alone (BM 34−KSL cells; [2]): significant increase; GFI-1 expression (GFI-1): upregulation; expression of PTEN (PTEN): down-modulated; HES-1 expression (HES-1): upregulation

From patent US20150216933A1, “HEMATOPOIETIC STEM CELL GROWTH FACTOR” (DUKE UNIVERSITY, priority 2008, published 2015)
